Data taken from US9809645B2, “Anti-Staphylococcus antibody, method for manufacturing same, and usage of same” (priority 2013, dated 2017).
Where a name gives a salt, the structure may show the parent alone.

Legend:
[1] = system: Staphylococcus aureus strain MW2; test: Community-acquired MRSA mouse pneumonia model, therapeutic; type: in vivo; conditions: 1 mg into tail vein three days after nasal infection with 4×10^8 cells MW2; lungs five days after infection; BALB/c mice; compared to PBS group; Wilcoxon rank sum test; FIGS. 10 and 11
Procedure: The Staphylococcus aureus strain MW2 was nasally administered, at 4×10^8 cells/40 μL PBS, to female 7-week-old BALB/c mice to allow the bacteria to infect the lungs. Three days later, 0.2 mL of a test sample (PBS, 1 mg anti-Staphylococcus antibody, 1 mg mouse IgG, 1 mg vancomycin hydrochloride (VCM)) was administered into the tail veins.
Five days after the Staphylococcus aureus administration (two days after the test sample administration), the lungs were extirpated, homogenized, and the resulting suspensions were applied to mannitol salt agar plates. They were cultured for 36 hours at 37° C. The number of colonies that appeared was counted, and was used as the number of lung infecting bacteria.

[2] = system: Staphylococcus aureus strain VRS1; test: Highly vancomycin-resistant MRSA mouse sepsis model; type: in vivo; conditions: 1 mg antibody intraperitoneal with 2-3×10^9 cells VRS1; female BALB/c mice; compared to PBS-administered group and VCM-administered group; Fisher's exact test; FIG. 7
Procedure: The Staphylococcus aureus strain VRS1, at 2-3×10^9 cells/0.5 mL PBS, and 0.2 mL of a test sample (PBS, 1 mg anti-Staphylococcus antibody, 1 mg mouse IgG, 1 mg vancomycin hydrochloride (VCM)) were administered to the peritoneal cavities of female 7-week-old BALB/c mice, and the number of surviving mice was determined.

[3] = system: Staphylococcus aureus (protein A knock-out OS2 strain); test: Staphylococcus aureus solid phase Cell-ELISA (live cells immobilized); type: binding; conditions: purified antibody; A405; FIG. 2
Procedure: In order to detect antibodies actually capable of binding to an infectious Staphylococcus capable of growth, the binding of the anti-Staphylococcus antibodies was measured using Staphylococcus aureus solid phase Cell-ELISA in which live cells were immobilized onto a solid phase.
A protein A knock-out OS2 strain was grown in stationary culture for 16 hours at 30° C. in TSB, collected by centrifugation, washed three times using Dulbecco's phosphate buffered saline (-) (hereinafter “PBS”), and adjusted to a concentration of about A600=0.1.
This was dispensed at 100 μL for each well of a 96-well ELISA plate (Nunc, Maxisorp), and the well was left standing for 6 hours at 4° C. to coat the cells. After washing three times with PBS, 300 μL of 1% rabbit serum/PBS was added to each well, and the well was left standing for 16 hours at 4° C. to perform blocking. Furthermore, after washing three times with 0.05% Tween 20/PBS, 100 μL/well of an immunized mouse serum or hybridoma culture supernatant was added to each well, and the well was left standing for 2 hours at 30° C. After washing three times with 0.05% Tween 20/PBS again, 100 μL/well of a goat HRP-labelled F(ab′)2 anti-mouse IgG+IgM (BioSource) or a goat HRP-labelled F(ab′)2 anti-mouse IgG (γ) (KPL) was added as the secondary antibody to each well, and the well was left standing for 2 hours at 30° C. After washing three times with 0.05% Tween 20/PBS, 100 μL/well of ABTS was added to each well as the substrate to allow color to develop, and photometry at A405 was performed using a microplate reader to measure the amount of anti-Staphylococcus antibodies.
The binding affinity between an anti-Staphylococcus antibody and a Staphylococcus was examined by ELTSA reactivity.

[4] = system: Staphylococcus aureus strain MW2; test: Community-acquired MRSA mouse pneumonia model, preventive; type: in vivo; conditions: 1 mg into tail vein one hour before nasal infection with 4×10^8 cells MW2; lungs four days after infection; BALB/c mice; compared to PBS group; Wilcoxon rank sum test; FIGS. 8 and 9
Procedure: A 0.2 mL portion of a test sample (PBS, 1 mg anti-Staphylococcus antibody, 1 mg vancomycin hydrochloride (VCM)) was administered into the tail vein, and one hour after the administration, the Staphylococcus aureus strain MW2 was nasally administered at 4×10^8 cells/40 μL PBS to female 7-week-old BALB/c mice to infect the lungs. Four days after the infection, the lungs were extirpated, suspended using a homogenizer, applied to mannitol salt agar plates, and cultured for 36 hours at 37° C. The number of colonies that appeared was counted, and was defined as the number of lung infecting bacteria.

[5] = system: Staphylococcus aureus strain MW2; test: Community-acquired MRSA mouse sepsis model; type: in vivo; conditions: 1 mg antibody intraperitoneal with 8×10^8 cells MW2; female BALB/c mice; compared to PBS-administered group; Fisher's exact test; FIGS. 4 and 5
Procedure: The Staphylococcus aureus strain MW2, at 8×10^8 cells/0.5 mL PBS, and 0.2 mL of a test substance (PBS, 1 mg anti-Staphylococcus antibody, 1 mg mouse IgG) were administered to the peritoneal cavities of female 7-week-old BALB/c mice, and the number of surviving mice was determined.

Molecule	number of lung infecting bacteria (therapeutic) [1]	life-prolonging effect (number of surviving mice) [2]	binding affinity to Staphylococcus aureus (ELISA reactivity, grouped by added concentration and reactivity) [3]	number of lung infecting bacteria (preventive) [4]	life-prolonging effect (number of surviving mice) [5]
CN[C@H](CC(C)C)C(=O)N[C@H]1C(=O)N[C@@H](CC(N)=O)C(=O)N[C@H]2C(=O)N[C@H]3C(=O)N[C@H](C(=O)N[C@H](C(=O)O)c4cc(O)cc(O)c4-c4cc3ccc4O)[C@H](O)c3ccc(c(Cl)c3)Oc3cc2cc(c3O[C@@H]2O[C@H](CO)[C@@H](O)[C@H](O)[C@H]2O[C@H]2C[C@](C)(N)[C@H](O)[C@H](C)O2)Oc2ccc(cc2Cl)[C@H]1O [VCM, vancomycin hydrochloride, reference compound]	significantly reduced numbers of lung infecting bacteria				
ZBIA3H: antibody produced by hybridoma NITE BP-1366; heavy and light chain variable regions SEQ ID NOs: 15 and 16 (antibody, listed as Mus musculus, V domains shown) VH: EVQLVESGGGLVQPKGSLKLSCAASGFTFNTYAMNWVRQAPGKGLEWVARIRSKSNNYATYYADSVKDRFTISRDDSQSMLYLQMNSLKTEDTAMYYCVRRGGNAIYYAMDYWGQGTSVTVSS VL: QIVLTQSPAIMSASPGEKVTMTCSANSSVSYMHWYQQKSGTSPKAWIYDTSKLASGVPARFSGSGSGTSYSLTISSMEAEDAATYYCQQWSSNPPTFGSGTKLEIK	significantly reduced numbers of lung infecting bacteria	significant life-prolonging effects	moderate level of binding affinity	significantly reduced numbers of lung infecting bacteria	significant life-prolonging effects
ZBIA9H: anti-Staphylococcus monoclonal antibody; CDRs SEQ ID NOs: 17-22, variable regions SEQ ID NOs: 23 and 24 (antibody, listed as Mus musculus, V domains shown) VH: EVQLVESGGGLVQPKGSLKLSCAASGFTFNTYAMNWVRQAPGKGLEWVARIRSKSNNYATYYADSVKDRFTIFRDDSQSILYLQLNNLKTEDTAMYYCVRRGGNPYYAMDYWGQGTSVTVSS VL: QIVLSQSPAILSASPGEKVTMTCRASSSVSYMHWYQQKPGSSPKPWIYATSNLASGVPGRFSGSGSGTSYSLTISRVEAEDAATYYCQQWSSNPPTFGGGTKLEIK			moderate level of binding affinity		
ZBIA5H: antibody produced by hybridoma NITE BP-1367; heavy and light chain variable regions SEQ ID NOs: 7 and 8 (antibody, listed as Mus musculus, V domains shown) VH: QIQLVQSGPELKKPGETVKISCKASGYTFTDYSMHWVKQAPGKGLKWMGWINTETGEPTYADDFKGRFAFSLETSASTAYLQINNLKNEDTATYFCARPYYAMDYWGQGTSVTVSS VL: DIQMTQSPSSLSASLGGKVTITCKASQDINKYIAWYQHKPGKGPRLLIHYTSTLQPGIPSRFSGSGSGRDYSFSISNLEPEDIATYYCLQYDNLLPWTFGGGTKLEIK	significantly reduced numbers of lung infecting bacteria	significant life-prolonging effects	moderate level of binding affinity	significantly reduced numbers of lung infecting bacteria	significant life-prolonging effects
